B1: PrgI (needle protein), isolated needle filament (natural protein)
chain: MATPWSGYLDDVSAKFDTGVDNLQTQVTEALDKLAAKPSDPALLAAYQSKLSEYNLYRNAQSNTVKVFKDIDAAIIQNFR
notes: PrgI, needle protein of the Salmonella Typhimurium SPI-1 type III secretion system; the model covers residues 3-80 (lacks only the first two N-terminal residues; C-terminal residue Arg80); Helical polymer of many copies; also called the needle; PrgI_(3–80); source: non-flagellated ΔPrgI Salmonella Typhimurium complemented with PrgI and hilA on pBAD plasmid; filaments removed by vigorous stirring, …
B2: PrgI (needle protein) in the purified needle complex (natural protein, UniProt P41784 1-80, looked up)
chain: B1 chain
notes: PrgI, needle protein of the Salmonella Typhimurium SPI-1 type III secretion system, as part of the native needle complex; Not resolved at high resolution inside the needle complex; the model of the isolated needle was fitted into the C1 map; also called the needle; needle filament; source: endogenous, ΔflhD Salmonella SL1344 with HilA on a pBAD plasmid; needle complex purified (LDAO lysis, …)
B3: InvG (outer membrane secretin) in the purified needle complex (natural protein)
chain: SEKIPVTGSGFVAKDDSLRTFFDAMALQLKEPVIVSKMAARKKITGNFEFHDPNALLEKLSLQLGLIWYFDGQAIYIYDASEMRNAVVSLRNVSLNEFNNFLKRSGLYNKNYPLRGDNRKGTFYVSGPPVYVDMVVNAATMMDKQNDGIELGRQKIGVMRLNNTFVGDRTYNLRDQKMVIPGIATAIERLLQGEEQPLGNIVSSEPPAMPAFSANGEKGKAANYAGGMSLQEALKQNAAAGNIKIVAYPDTNSLLVKGTAEQVHFIEMLVKALDVAKRHVELSLWIVDLNKSDLERLGTSWSGSITIGDKLGVSLNQSSISTLDGSRFIAAVNALEEKKQATVVSRPVLLTQENVPAIFDNNRTFYTKLIGERNVALEHVTYGTMIRVLPRFSADGQIEMSLDIEDGNDKTPQSDTTTSVDALPEVGRTLISTIARVPHGKSLLVGGYTRDANTDTVQSIPFLGKLPLIGSLFRYSSKNKSNVVRVFMIEPKEIVDPLTPDASESVNNILKQSGAWSGDDKLQKWVRVYLDRGQEAIK
notes: InvG, secretin of the Salmonella Typhimurium SPI-1 type III secretion system, native protein in the needle complex; the final model covers residues 34-557 (N3 domain loop 228-251 disordered); Native protein stood in the sample; 34-557 was modelled (core 176-557 at 3.9 Å); also called InvG_(34–557); InvG_(176–557); source: endogenous, ΔflhD Salmonella SL1344 with HilA on a pBAD plasmid; needle …
B4: PrgH (inner membrane ring protein) in the purified needle complex (natural protein)
chain: METSKEKTITSPGPYIVRLLNSSLNGCEFPLLTGRTLFVVGQSDALTASGQLPDIPADSFFIPLDHGGVNFEIQVDTDATEIILHELKEGNSESRSVQLNTPIQVGELLILIRPESEPWVPEQPEKLETSAKKNEPRFKNGIVAALAGFFILGIGTVGTLWILNSPQRQAAELDSLLGQEKERFQVLPGRDKMLYVAAQNERDTLWARQVLARGDYDKNARVINENEENKRISIWLDTYYPQLAYYRIHFDEPRKPVFWLSRQRNTMSKKELEVLSQKLRALMPYADSVNITLMDDVTAAGQAEAGLKQQALPYSRRNHKGGVTFVIQGALDDVEILRARQFVDSYYRTWGGRYVQFAIELKDDWLKGRSFQYGAEGYIKMSPGHWYFPSPL
notes: PrgH, Salmonella Typhimurium SPI-1 type III secretion system, native protein in the needle complex; Native protein stood in the sample; only 171-364 was modelled; also called PrgH_(171–364); IM rings; source: endogenous, ΔflhD Salmonella SL1344 with HilA on a pBAD plasmid; needle complex purified (LDAO lysis, centrifugation, CsCl gradient, Superose 6); copies: 24
B5: PrgK (inner membrane ring protein) in the purified needle complex (natural protein)
chain: CKDKDLLKGLDQEQANEVIAVLQMHNIEANKIDSGKLGYSITVAEPDFTAAVYWIKTYQLPPRPRVEIAQMFPADSLVSSPRAEKARLYSAIEQRLEQSLQTMEGVLSARVHISYDIDAGENGRPPKPVHLSALAVYERGSPLAHQISDIKRFLKNSFADVDYDNISVVLSERSDAQLQAPGTPVKRNSFATSWIVLIILLSVMSAGFGVWYYKNHYARNKKGITADDKAKSSNE
notes: PrgK, Salmonella Typhimurium SPI-1 type III secretion system, native protein in the needle complex; Native protein stood in the sample; only 20-203 was modelled; also called PrgK_(20–203); IM rings; source: endogenous, ΔflhD Salmonella SL1344 with HilA on a pBAD plasmid; needle complex purified (LDAO lysis, centrifugation, CsCl gradient, Superose 6); copies: 24

Data set [1] deals with the molecule itself. Put plainly: cryo-EM structure; isolated needle filaments, helical reconstruction in Relion, 3.3 Å (helical rise 4.33 Å, turn 63.34°), de novo model.
The target in data set [2] is B3. Put plainly: cryo-EM structure; purified needle complex; unsymmetrised C1 reconstruction, 7.4 Å; molecular envelope, needle model fitted with Chimera. The following applies: both partners purified.
Data set [3] deals with the molecule itself. Put plainly: cryo-EM structure; purified needle complex; symmetrised reconstructions with atomic models: C24 IM rings 3.6 Å; signal subtraction and focussed refinement of the secretin with C15, 4.1 Å (whole) and 3.9 Å (core).
For data set [4], the target named is B4. The description is as above. The following applies: both partners purified.

Turning to B1, in data set [1], the binding result is on record as “binds”. On to B2, for which, in data set [2], the binding result was “binds”. By stoichiometry N is commonly meant the number of molecules, sites or subunits per partner or assembly. As for B3, in data set [3], the “stoichiometry N” value amounted to 15. In the case of B4, the binding result in data set [2] is “binds”. The “stoichiometry N” value in data set [3] came out at 24. On to B5, for which the binding result in data set [4] was “binds”. Further, in data set [3], the “stoichiometry N” value was 24.

The values above are taken from PMC6155069, “Cryo-EM analysis of the T3S injectisome reveals the structure of the needle and open secretin” (Nature Communications, 2018).
